Common to all, as to experiment: BLI
The target of assay [1] is WRAIR-5005 (rhesus macaque).
The target in assay [2] is WRAIR-5001 (rhesus macaque | human).
The target of assay [3] is WRAIR-5020 (rhesus macaque).
In assay [4] the target is WRAIR-5011 (rhesus macaque).
For assay [5], the target named is WRAIR-5004 (rhesus macaque).
Assay [6] deals with WRAIR-5021 (rhesus macaque).
WRAIR-5021 (rhesus macaque), sequence (VH, as listed by the source, chain 1 of 2): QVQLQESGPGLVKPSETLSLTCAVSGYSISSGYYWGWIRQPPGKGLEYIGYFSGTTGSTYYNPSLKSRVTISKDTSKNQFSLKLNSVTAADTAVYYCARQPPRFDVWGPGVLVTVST
WRAIR-5021 (rhesus macaque), sequence (VL, as listed by the source, chain 2 of 2): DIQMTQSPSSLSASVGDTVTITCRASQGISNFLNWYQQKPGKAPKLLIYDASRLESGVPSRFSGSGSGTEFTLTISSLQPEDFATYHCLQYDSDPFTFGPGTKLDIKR

WRAIR-5020 (rhesus macaque), sequence (VH, as listed by the source, chain 1 of 2): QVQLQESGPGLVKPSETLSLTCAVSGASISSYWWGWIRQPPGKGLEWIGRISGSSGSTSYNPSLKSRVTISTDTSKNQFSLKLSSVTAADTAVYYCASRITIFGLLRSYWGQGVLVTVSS
WRAIR-5020 (rhesus macaque), sequence (VL, as listed by the source, chain 2 of 2): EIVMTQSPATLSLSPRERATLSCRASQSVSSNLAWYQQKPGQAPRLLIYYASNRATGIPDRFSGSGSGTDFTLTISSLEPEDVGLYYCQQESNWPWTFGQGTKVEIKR
WRAIR-5005 (rhesus macaque), sequence (VH, as listed by the source, chain 1 of 2): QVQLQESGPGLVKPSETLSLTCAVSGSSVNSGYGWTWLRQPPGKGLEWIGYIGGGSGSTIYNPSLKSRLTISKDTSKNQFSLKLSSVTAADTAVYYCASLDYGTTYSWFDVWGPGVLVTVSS
WRAIR-5005 (rhesus macaque), sequence (VL, as listed by the source, chain 2 of 2): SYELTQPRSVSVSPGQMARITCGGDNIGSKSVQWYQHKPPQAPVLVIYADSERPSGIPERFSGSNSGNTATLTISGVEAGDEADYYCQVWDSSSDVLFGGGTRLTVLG
WRAIR-5011 (rhesus macaque), sequence (VH, as listed by the source, chain 1 of 2): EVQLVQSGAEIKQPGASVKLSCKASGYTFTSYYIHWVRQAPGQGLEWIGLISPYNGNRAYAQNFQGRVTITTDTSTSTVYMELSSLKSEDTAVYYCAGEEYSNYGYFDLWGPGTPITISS
WRAIR-5011 (rhesus macaque), sequence (VL, as listed by the source, chain 2 of 2): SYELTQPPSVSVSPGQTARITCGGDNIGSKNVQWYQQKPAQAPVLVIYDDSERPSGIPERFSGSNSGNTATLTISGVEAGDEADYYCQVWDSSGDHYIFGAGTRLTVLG
WRAIR-5004 (rhesus macaque), sequence (VH, as listed by the source, chain 1 of 2): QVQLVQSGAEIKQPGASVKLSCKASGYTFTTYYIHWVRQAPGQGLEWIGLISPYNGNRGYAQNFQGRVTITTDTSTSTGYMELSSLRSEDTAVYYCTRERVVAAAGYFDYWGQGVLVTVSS
WRAIR-5004 (rhesus macaque), sequence (VL, as listed by the source, chain 2 of 2): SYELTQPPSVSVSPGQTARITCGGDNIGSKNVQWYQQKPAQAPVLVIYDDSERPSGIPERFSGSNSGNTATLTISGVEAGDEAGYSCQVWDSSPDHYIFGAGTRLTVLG

For “SARS-CoV-2 Omicron BA.4/5 RBD (from UniProt P0DTC2 331-527) (domain or fragment)”, the Kd in assay [1] stood at 41.1 nM; in assay [2], 0.92 nM; in assay [3], 34.5 nM; in assay [4], 0.42 nM; in assay [5], 3.1 nM; in assay [6] it was 2.63 nM.

“SARS-CoV-2 Omicron BA.1 RBD (from UniProt P0DTC2 331-527) (domain or fragment)”: the Kd in assay [1] is 14.9 nM; in assay [2], 0.23 nM; in assay [3], 24.1 nM; in assay [4], 0.38 nM; in assay [5] it was 1.93 nM; in assay [6] it was 8.05 nM.

These data come from publication PMC10764318.
